Data taken from patent US20110105397A1, “METHOD FOR TREATING HEART FAILURE WITH STRESSCOPIN-LIKE PEPTIDES” (priority 2009, published 2011).
Where a chain is given by its changes, count along the chain named. Where no end group is shown, it is not given here. The star is where a group is joined. Succinimide(1-Et,3-yl) = CCN1C(=O)CC(*)C1=O

Target: T1, human corticotrophin releasing hormone receptor type 2 (CRHR2) (human, UniProt Q13324 1-411)
T1 sequence (looked up): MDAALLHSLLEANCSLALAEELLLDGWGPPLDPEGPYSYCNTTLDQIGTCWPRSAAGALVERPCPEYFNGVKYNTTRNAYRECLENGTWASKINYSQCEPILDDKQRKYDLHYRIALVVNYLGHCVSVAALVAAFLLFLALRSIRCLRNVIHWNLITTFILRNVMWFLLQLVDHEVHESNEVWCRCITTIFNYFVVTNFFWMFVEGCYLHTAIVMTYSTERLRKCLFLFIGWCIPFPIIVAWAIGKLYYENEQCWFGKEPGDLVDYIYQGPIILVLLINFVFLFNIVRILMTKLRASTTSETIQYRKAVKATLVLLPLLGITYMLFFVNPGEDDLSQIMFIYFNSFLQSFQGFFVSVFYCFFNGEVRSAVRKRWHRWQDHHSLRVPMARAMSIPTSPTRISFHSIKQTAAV
Test: cell-based or functional assay

B1: Cys-variant stresscopin-like peptide SEQ ID NO: 5 (peptide)
peptide: TKFCLSLDVPTNIMNLLFNIAKAKNLRAQAAANAHLMAQI-NH2
  Log DR: 0.76 log10
  pA50: 8.93 -log10(M)

B2: Cys-variant stresscopin-like peptide SEQ ID NO: 14 (peptide)
peptide: TKFTLSLDVPTNCMNLLFNIAKAKNLRAQAAANAHLMAQI-NH2
  Log DR: > 2 log10
  pA50: ~7.34 -log10(M)

B3: Cys-variant stresscopin-like peptide SEQ ID NO: 18 (peptide)
peptide: TKFTLSLDVPTNIMNLCFNIAKAKNLRAQAAANAHLMAQI-NH2
  Log DR: 1.11 log10
  pA50: 8.41 -log10(M)

B4: Cys-variant stresscopin-like peptide SEQ ID NO: 15 (peptide)
peptide: TKFTLSLDVPTNICNLLFNIAKAKNLRAQAAANAHLMAQI-NH2
  Log DR: 0.9 log10
  pA50: 8.68 -log10(M)

B5: Cys-variant stresscopin-like peptide SEQ ID NO: 11 (peptide)
peptide: TKFTLSLDVCTNIMNLLFNIAKAKNLRAQAAANAHLMAQI-NH2
  Log DR: 0.82 log10
  pA50: 8.76 -log10(M)

B6: Cys-variant stresscopin-like peptide SEQ ID NO: 13 (peptide)
peptide: TKFTLSLDVPTCIMNLLFNIAKAKNLRAQAAANAHLMAQI-NH2
  Log DR: -0.01 log10
  pA50: 9.59 -log10(M)

B7: Cys-variant stresscopin-like peptide SEQ ID NO: 12 (peptide)
peptide: TKFTLSLDVPCNIMNLLFNIAKAKNLRAQAAANAHLMAQI-NH2
  Log DR: 1.72 log10
  pA50: 7.86 -log10(M)

B8: Cys-variant stresscopin-like peptide SEQ ID NO: 9 (peptide)
peptide: TKFTLSLCVPTNIMNLLFNIAKAKNLRAQAAANAHLMAQI-NH2
  Log DR: 1.89 log10
  pA50: 7.8 -log10(M)

B9: Pegylated Cys-variant stresscopin-like peptide with NES linker and PEG about 20 kDa SEQ ID NO: 55 (peptide)
peptide: CKFTLSLDVPTNIMNLLFNIAKAKNLRAQAAANAHLMAQI
modifications: NES-PEG (about 20 kDa) on Cys 1; C-terminal amide (-NH2)
  Log DR: ~1.61 log10
  pA50: ~7.93 -log10(M)

B10: Pegylated Cys-variant stresscopin-like peptide with NES linker and PEG about 20 kDa SEQ ID NO: 67 (peptide)
peptide: B9 peptide with C1T, I13C
modifications: NES-PEG (about 20 kDa) on Cys 13; C-terminal amide (-NH2)
  Log DR: > 3 log10
  pA50: ~6.35 -log10(M)

B11: Pegylated Cys-variant stresscopin-like peptide with NES linker and PEG about 20 kDa SEQ ID NO: 57 (peptide)
peptide: B9 peptide with C1T, F3C
modifications: NES-PEG (about 20 kDa) on Cys 3; C-terminal amide (-NH2)
  Log DR: ~1.9 log10
  pA50: ~7.64 -log10(M)

B12: Pegylated Cys-variant stresscopin-like peptide with NES linker and PEG about 20 kDa SEQ ID NO: 61 (peptide)
peptide: B9 peptide with C1T, L7C
modifications: NES-PEG (about 20 kDa) on Cys 7; C-terminal amide (-NH2)
  Log DR: > 3.32 log10
  pA50: ~6.22 -log10(M)

B13: Pegylated Cys-variant stresscopin-like peptide with NES linker and PEG about 20 kDa SEQ ID NO: 56 (peptide)
peptide: B9 peptide with C1T, K2C
modifications: NES-PEG (about 20 kDa) on Cys 2; C-terminal amide (-NH2)
  Log DR: ~2.34 log10
  pA50: ~7.2 -log10(M)

B14: Pegylated Cys-variant stresscopin-like peptide with NES linker and PEG about 20 kDa SEQ ID NO: 68 (peptide)
peptide: B9 peptide with C1T, M14C
modifications: NES-PEG (about 20 kDa) on Cys 14; C-terminal amide (-NH2)
  Log DR: ~2.61 log10
  pA50: ~6.96 -log10(M)

B15: Pegylated Cys-variant stresscopin-like peptide with NES linker and PEG about 20 kDa SEQ ID NO: 63 (peptide)
peptide: B9 peptide with C1T, V9C
modifications: NES-PEG (about 20 kDa) on Cys 9; C-terminal amide (-NH2)
  Log DR: ~2.12 log10
  pA50: ~7.45 -log10(M)

B16: Pegylated Cys-variant stresscopin-like peptide with NES linker and PEG about 20 kDa SEQ ID NO: 65 (peptide)
peptide: B9 peptide with C1T, T11C
modifications: NES-PEG (about 20 kDa) on Cys 11; C-terminal amide (-NH2)
  Log DR: ~2.75 log10
  pA50: ~6.82 -log10(M)

B17: Pegylated Cys-variant stresscopin-like peptide with NES linker and PEG about 20 kDa SEQ ID NO: 70 (peptide)
peptide: B9 peptide with C1T, L16C
modifications: NES-PEG (about 20 kDa) on Cys 16; C-terminal amide (-NH2)
  Log DR: ~2.07 log10
  pA50: ~7.34 -log10(M)

B18: Pegylated Cys-variant stresscopin-like peptide with NES linker and PEG about 20 kDa SEQ ID NO: 59 (peptide)
peptide: B9 peptide with C1T, L5C
modifications: NES-PEG (about 20 kDa) on Cys 5; C-terminal amide (-NH2)
  Log DR: ~2.32 log10
  pA50: ~7.22 -log10(M)

B19: Pegylated Cys-variant stresscopin-like peptide with NES linker and PEG about 20 kDa SEQ ID NO: 58 (peptide)
peptide: B9 peptide with C1T, T4C
modifications: NES-PEG (about 20 kDa) on Cys 4; C-terminal amide (-NH2)
  Log DR: ~2.4 log10
  pA50: ~7.14 -log10(M)

B20: Pegylated Cys-variant stresscopin-like peptide with NES linker and PEG about 20 kDa SEQ ID NO: 62 (peptide)
peptide: B9 peptide with C1T, D8C
modifications: NES-PEG (about 20 kDa) on Cys 8; C-terminal amide (-NH2)
  Log DR: > 3.48 log10
  pA50: ~6.06 -log10(M)

B21: Pegylated Cys-variant stresscopin-like peptide with NES linker and PEG about 20 kDa SEQ ID NO: 64 (peptide)
peptide: B9 peptide with C1T, P10C
modifications: NES-PEG (about 20 kDa) on Cys 10; C-terminal amide (-NH2)
  Log DR: ~2.59 log10
  pA50: ~6.98 -log10(M)

B22: Pegylated Cys-variant stresscopin-like peptide with NES linker and PEG about 20 kDa SEQ ID NO: 60 (peptide)
peptide: B9 peptide with C1T, S6C
modifications: NES-PEG (about 20 kDa) on Cys 6; C-terminal amide (-NH2)
  Log DR: > 3.22 log10
  pA50: ~6.32 -log10(M)

B23: Pegylated Cys-variant stresscopin-like peptide with NES linker and PEG about 20 kDa SEQ ID NO: 66 (peptide)
peptide: B9 peptide with C1T, N12C
modifications: NES-PEG (about 20 kDa) on Cys 12; C-terminal amide (-NH2)
  Log DR: 1.26 log10
  pA50: 8.31 -log10(M)

B24: Pegylated Cys-variant stresscopin-like peptide with NES linker and PEG about 20 kDa SEQ ID NO: 69 (peptide)
peptide: B9 peptide with C1T, N15C
modifications: NES-PEG (about 20 kDa) on Cys 15; C-terminal amide (-NH2)
  Log DR: 2.09 log10
  pA50: 7.45 -log10(M)

B25: Cys-variant stresscopin-like peptide SEQ ID NO: 6 (peptide)
peptide: TKFTCSLDVPTNIMNLLFNIAKAKNLRAQAAANAHLMAQI-NH2
  Log DR: 0.61 log10
  pA50: 9.07 -log10(M)

B26: Cys-variant stresscopin-like peptide SEQ ID NO: 8 (peptide)
peptide: TKFTLSCDVPTNIMNLLFNIAKAKNLRAQAAANAHLMAQI-NH2
  Log DR: 2.86 log10
  pA50: ~6.82 -log10(M)

B27: Cys-variant of stresscopin peptide with N-Ethylsuccinimide (NES) reactive group SEQ ID NO: 53 (peptide)
peptide: TKFTLSLDVPTNIMNLC(Succinimide(1-Et,3-yl))FNIAKAKNLRAQAAANAHLMAQI-NH2
modifications: N-terminus assumed
SMILES: CC[C@H](C)[C@H](NC(=O)[C@H](CCC(N)=O)NC(=O)[C@H](C)NC(=O)[C@H](CCSC)NC(=O)[C@H](CC(C)C)NC(=O)[C@H](Cc1c[nH]cn1)NC(=O)[C@H](C)NC(=O)[C@H](CC(N)=O)NC(=O)[C@H](C)NC(=O)[C@H](C)NC(=O)[C@H](C)NC(=O)[C@H](CCC(N)=O)NC(=O)[C@H](C)NC(=O)[C@H](CCCNC(=N)N)NC(=O)[C@H](CC(C)C)NC(=O)[C@H](CC(N)=O)NC(=O)[C@H](CCCCN)NC(=O)[C@H](C)NC(=O)[C@H](CCCCN)NC(=O)[C@H](C)NC(=O)[C@@H](NC(=O)[C@H](CC(N)=O)NC(=O)[C@H](Cc1ccccc1)NC(=O)[C@H](CSC1CC(=O)N(CC)C1=O)NC(=O)[C@H](CC(C)C)NC(=O)[C@H](CC(N)=O)NC(=O)[C@H](CCSC)NC(=O)[C@@H](NC(=O)[C@H](CC(N)=O)NC(=O)[C@@H](NC(=O)[C@@H]1CCCN1C(=O)[C@@H](NC(=O)[C@H](CC(=O)O)NC(=O)[C@H](CC(C)C)NC(=O)[C@H](CO)NC(=O)[C@H](CC(C)C)NC(=O)[C@@H](NC(=O)[C@H](Cc1ccccc1)NC(=O)[C@H](CCCCN)NC(=O)[C@@H](N)[C@@H](C)O)[C@@H](C)O)C(C)C)[C@@H](C)O)[C@@H](C)CC)[C@@H](C)CC)C(N)=O
  Log DR: ~2.22 log10
  pA50: ~7.25 -log10(M)

B28: Cys-variant stresscopin-like peptide SEQ ID NO: 7 (peptide)
peptide: TKFTLCLDVPTNIMNLLFNIAKAKNLRAQAAANAHLMAQI-NH2
  Log DR: 2.08 log10
  pA50: 7.6 -log10(M)

B29: Cys-variant stresscopin-like peptide SEQ ID NO: 10 (peptide)
peptide: TKFTLSLDCPTNIMNLLFNIAKAKNLRAQAAANAHLMAQI-NH2
  Log DR: 1.3 log10
  pA50: 8.28 -log10(M)

B30: Cys-variant stresscopin-like peptide SEQ ID NO: 4 (peptide)
peptide: TKCTLSLDVPTNIMNLLFNIAKAKNLRAQAAANAHLMAQI-NH2
  Log DR: 1.03 log10
  pA50: 8.65 -log10(M)

B31: Cys-variant stresscopin-like peptide SEQ ID NO: 3 (peptide)
peptide: TCFTLSLDVPTNIMNLLFNIAKAKNLRAQAAANAHLMAQI-NH2
  Log DR: 0.72 log10
  pA50: 8.97 -log10(M)

B32: Cys-variant stresscopin-like peptide SEQ ID NO: 16 (peptide)
peptide: TKFTLSLDVPTNIMCLLFNIAKAKNLRAQAAANAHLMAQI-NH2
  Log DR: 0.76 log10
  pA50: 8.93 -log10(M)

B33: Cys-variant of stresscopin peptide with N-Ethylsuccinimide (NES) reactive group SEQ ID NO: 54 (peptide)
peptide: TKFTLSLDVPTNIMNC(Succinimide(1-Et,3-yl))LFNIAKAKNLRAQAAANAHLMAQI-NH2
modifications: N-terminus assumed
SMILES: CC[C@H](C)[C@H](NC(=O)[C@H](CCC(N)=O)NC(=O)[C@H](C)NC(=O)[C@H](CCSC)NC(=O)[C@H](CC(C)C)NC(=O)[C@H](Cc1c[nH]cn1)NC(=O)[C@H](C)NC(=O)[C@H](CC(N)=O)NC(=O)[C@H](C)NC(=O)[C@H](C)NC(=O)[C@H](C)NC(=O)[C@H](CCC(N)=O)NC(=O)[C@H](C)NC(=O)[C@H](CCCNC(=N)N)NC(=O)[C@H](CC(C)C)NC(=O)[C@H](CC(N)=O)NC(=O)[C@H](CCCCN)NC(=O)[C@H](C)NC(=O)[C@H](CCCCN)NC(=O)[C@H](C)NC(=O)[C@@H](NC(=O)[C@H](CC(N)=O)NC(=O)[C@H](Cc1ccccc1)NC(=O)[C@H](CC(C)C)NC(=O)[C@H](CSC1CC(=O)N(CC)C1=O)NC(=O)[C@H](CC(N)=O)NC(=O)[C@H](CCSC)NC(=O)[C@@H](NC(=O)[C@H](CC(N)=O)NC(=O)[C@@H](NC(=O)[C@@H]1CCCN1C(=O)[C@@H](NC(=O)[C@H](CC(=O)O)NC(=O)[C@H](CC(C)C)NC(=O)[C@H](CO)NC(=O)[C@H](CC(C)C)NC(=O)[C@@H](NC(=O)[C@H](Cc1ccccc1)NC(=O)[C@H](CCCCN)NC(=O)[C@@H](N)[C@@H](C)O)[C@@H](C)O)C(C)C)[C@@H](C)O)[C@@H](C)CC)[C@@H](C)CC)C(N)=O
  Log DR: -0.08 log10
  pA50: 9.55 -log10(M)

B34: Cys-variant stresscopin-like peptide SEQ ID NO: 17 (peptide)
peptide: TKFTLSLDVPTNIMNCLFNIAKAKNLRAQAAANAHLMAQI-NH2
  Log DR: 0.02 log10
  pA50: 9.5 -log10(M)

B35: Cys-variant stresscopin-like peptide SEQ ID NO: 2 (peptide)
peptide: CKFTLSLDVPTNIMNLLFNIAKAKNLRAQAAANAHLMAQI-NH2
  Log DR: 0.72 log10
  pA50: 8.97 -log10(M)
